Some results are limits rather than exact numbers.

Here are results for one substance from patent US9188587.

Test [1] deals with I^125-αDTX-labelled VGKCs (Kv1 complexes) in digitonin-solubilised rabbit cortex extract.
Test [2] has the same target. The source holds these as a separate data set.

“goat anti Lgi1 antibody (Santa Cruz C19 sc-9583 and N18 sc-9581)”: the percent of total I^125-αDTX binding sites precipitated in test [1] was greater than 60%. This substance yielded a percent of αDTX binding sites immunoprecipitated in test [2] of 61%.
